Consider three proteins from PMC6925194.

B1: ASCT2 (Alanine, Serine, Cysteine Transporter 2; SLC1A5): N163H (protein)
parent chain: MVADPPRDSKGLAAAEPTANGGLALASIEDQGAAAGGYCGSRDQVRRCLRANLLVLLTVVAVVAGVALGLGVSGAGGALALGPERLSAFVFPGELLLRLLRMIILPLVVCSLIGGAASLDPGALGRLGAWALLFFLVTTLLASALGVGLALALQPGAASAAINASVGAAGSAENAPSKEVLDSFLDLARNIFPSNLVSAAFRSYSTTYEERNITGTRVKVPVGQEVEGMNILGLVVFAIVFGVALRKLGPEGELLIRFFNSFNEATMVLVSWIMWYAPVGIMFLVAGKIVEMEDVGLLFARLGKYILCCLLGHAIHGLLVLPLIYFLFTRKNPYRFLWGIVTPLATAFGTSSSSATLPLMMKCVEENNGVAKHISRFILPIGATVNMDGAALFQCVAAVFIAQLSQQSLDFVKIITILVTATASSVGAAGIPAGGVLTLAIILEAVNLPVDHISLILAVDWLVDRSCTVLNVEGDALGAGLLQNYVDRTESRSTEPELIQVKSELPLDPLPVPTEEGNPLLKHYRGPAGDATVASEKESVM
B2: ASCT2 (Alanine, Serine, Cysteine Transporter 2; SLC1A5): N163H/N212H (protein)
parent chain: B1 parent chain
B3: ASCT2 (Alanine, Serine, Cysteine Transporter 2; SLC1A5): N212H (protein)
parent chain: B1 parent chain

The nature of the series: CHO co-transfection, flow cytometry fusion index. Conditions: glycan lost; control: wild-type ASCT2. (A flow cytometer gives signals particle by particle.)
B1: the “other: SYN1-induced cell-cell fusion” value is “no change”. For B2 the value was “no change”. For B3 the value was “no change”.
